T1: GST-Rar1 (wild type) (Arabidopsis thaliana (Mouse-ear cress), UniProt Q9SE33)
T1 chain: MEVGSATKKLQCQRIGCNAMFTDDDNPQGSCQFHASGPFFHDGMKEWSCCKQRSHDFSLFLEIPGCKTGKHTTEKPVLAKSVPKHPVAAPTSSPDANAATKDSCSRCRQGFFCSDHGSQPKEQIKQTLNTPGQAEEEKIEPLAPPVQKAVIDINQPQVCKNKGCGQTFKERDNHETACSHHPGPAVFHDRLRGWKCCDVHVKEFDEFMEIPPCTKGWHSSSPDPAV


Columns and labels:
[1] = biological target: T1, GST-Rar1 (wild type); experiment: GST pull-down; strengthened by Sgt1; ADP enhances the CHORDI-Hsp90 interaction
[2] = biological target: Hsp90 ( (Arabidopsis H. vulgare or …, UniProt Q7XJ80)); experiment: competition GST pull-down; ATPase stimulation
Sequence of Hsp90 ( (Q7XJ80 entry or part of it): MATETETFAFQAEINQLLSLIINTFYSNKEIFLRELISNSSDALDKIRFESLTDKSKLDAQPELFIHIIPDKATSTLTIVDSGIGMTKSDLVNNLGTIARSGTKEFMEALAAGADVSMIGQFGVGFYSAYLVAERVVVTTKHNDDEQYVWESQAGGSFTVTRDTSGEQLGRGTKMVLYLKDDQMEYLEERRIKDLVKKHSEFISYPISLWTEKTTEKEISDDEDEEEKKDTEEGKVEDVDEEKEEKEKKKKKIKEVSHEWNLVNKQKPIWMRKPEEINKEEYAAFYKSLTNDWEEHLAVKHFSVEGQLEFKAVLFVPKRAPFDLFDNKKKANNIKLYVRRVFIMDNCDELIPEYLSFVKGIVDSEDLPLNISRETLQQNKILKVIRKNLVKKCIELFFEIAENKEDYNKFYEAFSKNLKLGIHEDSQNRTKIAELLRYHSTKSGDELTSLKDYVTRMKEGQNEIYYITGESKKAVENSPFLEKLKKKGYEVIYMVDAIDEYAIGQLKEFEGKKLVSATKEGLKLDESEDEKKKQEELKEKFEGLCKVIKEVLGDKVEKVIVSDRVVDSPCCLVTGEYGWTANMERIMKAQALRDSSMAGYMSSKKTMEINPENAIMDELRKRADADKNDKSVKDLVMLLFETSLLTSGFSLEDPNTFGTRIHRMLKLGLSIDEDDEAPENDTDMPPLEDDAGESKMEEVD

Binder | binding result [1] | binding result [2]
Hsp90 (protein) not shown | binds | –
Rar1 (wild type, not GST-tagged) (protein) MEVGSATKKLQCQRIGCNAMFTDDDNPQGSCQFHASGPFFHDGMKEWSCCKQRSHDFSLFLEIPGCKTGKHTTEKPVLAKSVPKHPVAAPTSSPDANAATKDSCSRCRQGFFCSDHGSQPKEQIKQTLNTPGQAEEEKIEPLAPPVQKAVIDINQPQVCKNKGCGQTFKERDNHETACSHHPGPAVFHDRLRGWKCCDVHVKEFDEFMEIPPCTKGWHSSSPDPAV | – | binds
